Experiment [1] deals with T1, canine PD-1 protein amino acids 25-168 with His tag (canine, UniProt A0A090BAM7 25-168).
T1 construct: Expressed in Expi293F cells; used as immunogen and as antigen in ELISA and Octet; also called PD-1 His
Kind of experiment: kinetics, PD-1 His 1.1 nM.

Experiment [2] concerns the target T1, canine PD-1 protein amino acids 25-168 …. Kind of experiment: kinetics, PD-1 His 4.0 nM.
The target is the same in experiment [3]. Kind of experiment: kinetics, PD-1 His 12.4 nM.
Experiment [4] has the same target. Kind of experiment: kinetics, PD-1 His 37.3 nM.
For experiment [5] the target is unchanged. Kind of experiment: kinetics, PD-1 His 111.3 nM.
The target is the same in experiment [6]. Kind of experiment: kinetics, PD-1 His 333.3 nM.
Experiment [7] has the same target. Kind of experiment: kinetics, PD-1 His 1000.0 nM.
Experiment [8] has the same target. Kind of experiment: kinetics, global fit over PD-1 His 1.1-1000 nM.
For experiment [9] the target is unchanged. Kind of experiment: kinetics, global fit over the PD-1 His series 1.1-1000.0 nM.
Experiment [10] has as its target T2, PD1 on the surface of T cells (canine PBMC stimulated with ConA) (canine, UniProt A0A090BAM7 25-288).
T2 construct: also called canine PD-1
Kind of experiment: flow cytometry, ConA-stimulated canine PBMC, CD3-FITC and PE-labeled anti-canine IgG. How it is done:
(§1) The cells were stimulated by 0.5 μg/mL ConA for 3 days, and collected. PBMC was incubated with canine-anti-CD3-FITC and caninized monoclonal antibodies C1, C3 and C11 respectively. Then the cells were incubated again with PE-labeled canine-IgG antibody. […] Moreover, the results also indicate that the caninized monoclonal antibodies C1, C3 and C11 have potential blocking effect on the PD1/PD-L1 signaling pathway, and thus have protective effect on the function of T cells (see FIG. 14).

The target of experiment [11] is T2, PD1 on the surface of T cells (canine …). Kind of experiment: flow cytometry on ConA-stimulated canine PBMC, stained with anti-CD3-FITC and the caninized antibody, detected with PE-labeled anti-canine IgG; quadrant plot FITC against PE; no unstained or isotype control shown. As for the experimental part: as §1
The target in experiment [12] is T1, canine PD-1 protein amino acids 25-168 …. Kind of experiment: ELISA, PD-1 His 100 ng/mL, clone supernatant. For orientation: ELISA stands for enzyme-linked immunosorbent assay.
Experiment [13] has the same target. Kind of experiment: Octet BLI, supernatant captured by anti-mouse IgG Fc, PD-1 His 20 nM. As for the experimental part: Octet BMIA was used to determine the affinity of the supernatant of the PD-1A clone culture to PD-1 His. Anti-mouse IgG Fc was added to each clone supernatant to capture competence factors.
On the technique in general: Biolayer interferometry detects binding as a change in optical thickness at a sensor tip.

In experiment [14] the target is T3, PD1-Fc (canine, UniProt A0A090BAM7 25-168).
T3 construct: also called Only Ag (PD1 Fc)
Kind of experiment: Octet BLI competition, competitor PD-L1 Fc on AHC sensor, against PD1 Fc only. How it is done:
(§2) D-L1 Fc ([…]) was loaded on an AHC sensor for cross-linking assay. Epitope analysis was used to determine the binding of antibodies loaded on the sensor to recombinant antibodies preincubated with PD1-Fc. The binding (response) degrees observed were compared to that of antigen only under the same conditions. If the total response of an antibody was higher than that of antigen only, the antibody would be matched. If the response of an antibody was lower than 80% of that of antigen, the antibody would be blocked with each other.

Experiment [15] concerns the target T3, PD1-Fc. Kind of experiment: Octet BLI competition, competitor PD-L1 Fc on AHC sensor, PD1 Fc 50 nM preincubated with supernatant 1/2. As for the experimental part: as §2

Seven molecules from patent US20220324977A1 (BEIJING SINOGENE BIOTECHNOLOGY, published 2022) can be followed below.

The term Kd denotes the equilibrium constant for the complex coming apart. A low value points to tighter binding. Usually koff stands for the rate constant with which the complex falls apart. Higher therefore signals fast dissociation. One may read the kon as a measure of how fast the partners come together. A low value points to slower complex formation.

T3 sequence (A0A090BAM7 entry or part of it limits assumed): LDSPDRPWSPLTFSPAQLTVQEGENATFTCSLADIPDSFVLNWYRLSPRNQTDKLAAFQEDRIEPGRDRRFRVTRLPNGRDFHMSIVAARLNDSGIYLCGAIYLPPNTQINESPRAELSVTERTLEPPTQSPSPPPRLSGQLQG
T2 sequence (A0A090BAM7 entry or part of it limits assumed): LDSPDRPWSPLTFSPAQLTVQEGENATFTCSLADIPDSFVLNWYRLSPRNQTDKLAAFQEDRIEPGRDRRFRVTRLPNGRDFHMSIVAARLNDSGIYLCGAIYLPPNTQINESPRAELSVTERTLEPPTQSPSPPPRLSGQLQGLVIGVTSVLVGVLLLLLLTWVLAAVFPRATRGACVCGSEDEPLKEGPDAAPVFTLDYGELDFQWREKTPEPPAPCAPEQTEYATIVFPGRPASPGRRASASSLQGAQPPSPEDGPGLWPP

B1: caninized monoclonal antibody C1 (antibody, V domains shown)
VH: EVQLQQSGAELVKPGASVKLSCTASGFNIKDTYMHWVKQRPEQGLEWIGRIDPAIDNTKYDPKFQGKATITADTSSNTAYLQLSSLTSEDTAVYYCASGFYTMDYWGQGTSVTVSS
VL: QIVLTQSPAIMSASPGEKVTMTCSASSSVTYMYWFQQKPGSSPRLWIYDTSNLVSGVPARFSGSRSGTSYSLTISSMEAEDAATYYCQQYSGHPSSFGSGTKLEIKR
notes: Variable domains as for M1; also called C1(35.38); 35.38
Turning to B1, the “Response (nm)” value in [1] is -0.031 nm; in [2], 0.005 nm; in experiment [3] it was 0.001 nm; in experiment [4], 0.008 nm; in experiment [5], 0.016 nm; in experiment [6], -0.004 nm. Also, the “Response (nm)” value in experiment [7] worked out at 0.001 nm. Moreover, the Kd in [2] worked out at 18.4 nM; in [3] it was 2.46 nM; in experiment [4], 2.65 nM; in [5], 2.06 nM; in [8] it was 1.59 nM; in experiment [9] it was 1.59 nM. For the same molecule, the koff came to 1.27 s⁻¹ in experiment [2]; 0.0198 s⁻¹ in experiment [3]; 0.00953 s⁻¹ in [4]; 0.000886 s⁻¹ in [5]; 0.401 s⁻¹ in [8]; 0.401 s⁻¹ in experiment [9]. Moreover, the kon came out at 6.93e+07 M⁻¹ s⁻¹ in experiment [2]; 8.05e+06 M⁻¹ s⁻¹ in [3]; 3.6e+06 M⁻¹ s⁻¹ in experiment [4]; 430000 M⁻¹ s⁻¹ in [5]; 2.51e+08 M⁻¹ s⁻¹ in [8]; 2.51e+08 M⁻¹ s⁻¹ in experiment [9]. Also, the “PD1 positive cells in T cells” value in experiment [10] worked out at 94.6%. The “% of cells in quadrant Q2 (Comp-FITC-A positive, Comp-PE-A positive)” value in experiment [11] was 57.9%.

B2: PD-1 A-M3 (antibody, mouse IgG1, V domains shown)
VH: EVRLQQSGAELVKPGASVKLSCTASGFNIKDTYLHWLKERPEQGLEWIGRIDPAIGNTRYDPKFQVKATITADTSSNTAYLQLSSLTSEDSAVYYCARGFYGMDYWGQGTSVTVSS
VL: QIVLTQSPAIMSASPGEKVTMTCSASSSVSYMFWYQQKPGSSPRLWIYDTSNLVSGVPARFSGSRSGTSYSLTISSMEAEDAATYYCQQYSGYPYTFGGGTKLEIK
notes: Mouse IgG1 kappa, hybridoma supernatant; also called 4G01
For B2, the “O.D. determined by ELISA” value in [12] is 2.87. Further, in experiment [13], the Kd was less than 0.001 nM, the “Response (nm)” value is 0.041 nm, the koff is less than 1e-07 s⁻¹ and the on-rate constant (kon) is 174000 M⁻¹ s⁻¹. In addition, the “% response” value with PD1-Fc [14] is -5%. For the same molecule, the “Response (nm)” value with PD1-Fc [15] is -0.002 nm.

B3: PD-1 A-M11 (antibody, V domains shown)
VH: EVQLQQSGAEVVKPGASVKLSCTASGFNIKDTYMHWVKQRPEQGLEWIGRIDPAIGNPKYDPKFQGRATITADTSSNTAYLQLSSLTSEDTAVYYCASGFYAMDCWGQGTSVTVSS
VL: QIVLTQSPAIMSASPGEKVTMTCSASSSITYMFWYQQKPGSSPRLWIYDTSNLVSGVPARFSGSKSGTSYSLTITSMEAEDAATYYCQQYSGYPSTFGSGTKLEIK
notes: Mouse IgG1 kappa, hybridoma supernatant; The VL is therefore uncertain; also called 9B04
As for B3, the “O.D. determined by ELISA” value in experiment [12] amounted to 2.66. Moreover, in [13], the Kd is 0.903 nM, the “Response (nm)” value was determined as 0.049 nm, the koff turned out to be 0.000312 s⁻¹ and the kon amounted to 346000 M⁻¹ s⁻¹. Moreover, the “% response” value with PD1-Fc [14] was -16%. Also, in the experiment with PD1-Fc [15], the “Response (nm)” value is -0.008 nm.

B4: PD-1 A-M1 (antibody, mouse IgG1, V domains shown)
VH: EVQLQQSGAELVKPGASVKLSCTASGFNIKDTYMHWVKQRPEQGLEWIGRIDPAIDNTKYDPKFQGKATITADTSSNTAYLQLSSLTSEDTAVYYCASGFYTMDYWGQGTSVTVSS
VL: QIVLTQSPAIMSASPGEKVTMTCSASSSVTYMYWFQQKPGSSPRLWIYDTSNLVSGVPARFSGSRSGTSYSLTISSMEAEDAATYYCQQYSGHPSSFGSGTKLEIK
notes: Mouse IgG1 kappa, tested as hybridoma supernatant; also called 2C08
On to B4, for which the “O.D. determined by ELISA” value in [12] was found to be 2.65. In [13], the affinity, expressed as Kd, was 144 nM; the “Response (nm)” value came out at 0.049 nm; the koff came out at 0.00044 s⁻¹; the kon is 3060 M⁻¹ s⁻¹. For the same molecule, the “% response” value with PD1-Fc [14] is -21.9%. Moreover, the “Response (nm)” value with PD1-Fc [15] was -0.009 nm.

B5: PD-1 A-M10 (antibody, mouse IgG1, V domains shown)
VH: EVRLQQSGAELVKPGASVKLSCTASGFNIKDTYLHWLKERPEQGLEWIGRIDPAIGNTRYDPKFQVKATITADTSSNTAYLQLSSLTSEDSAVYYCARGFYGMDYWGQGTSVTVSS
VL: QIVLTQSPAIMSASPGEKVTMTCSASSSVSYMFWYQQKPGSSPRLWIYDTSNLVSGVPARFSGSRSGTSYSLTISSMEAEDAATYYCQQYSGYPYTFGGGTKLEIK
notes: Mouse IgG1 kappa, hybridoma supernatant; also called 8H01
On to B5, for which the “O.D. determined by ELISA” value in [12] is 2.83. Further, in [13], the Kd came to 0.0306 nM, the “Response (nm)” value was determined as 0.044 nm, the koff stood at 6.96e-06 s⁻¹ and the kon turned out to be 227000 M⁻¹ s⁻¹. Further, the “% response” value with PD1-Fc [14] stood at 12%. The “Response (nm)” value in the experiment with PD1-Fc [15] is 0.006 nm.

B6: PD-1 A-M15 (antibody, mouse IgG1, V domains shown)
VH: EVRLQQSGAELVKPGASVKLSCTASGFNIKDTYLHWLKERPEQGLEWIGRIDPAIGNTRYDPKFQVKATITADTSSNTAYLQLSSLTSEDSAVYYCARGFYGMDYWGQGTSVTVSS
VL: QIVLTQSPAIMSASPGEKVTMTCSASSSVSYMFWYQQKPGSSPRLWIYDTSNLVSGVPARFSGSRSGTSYSLTISSMEAEDAATYYCQQYSGYPYTFGGGTKLEIK
notes: Mouse IgG1 kappa, hybridoma supernatant; also called 11E10
Consider B6, for which the “O.D. determined by ELISA” value in experiment [12] is 2.34. Moreover, in experiment [13], the Kd was 10.4 nM, the “Response (nm)” value was 0.068 nm, the koff was determined as 0.000608 s⁻¹ and the on-rate (kon) is 58500 M⁻¹ s⁻¹. Moreover, the “% response” value in the experiment with PD1-Fc [14] was -8.21%. Further, the “Response (nm)” value with PD1-Fc [15] was -0.005 nm.

B7: PD-1 A-M23 (antibody, mouse IgG1, V domains shown)
VH: EVRLQQSGAELVKPGASVKLSCTASGFNIKDTYLHWLKERPEQGLEWIGRIDPAIGNTRYDPKFQVKATITADTSSNTAYLQLSSLTSEDSAVYYCARGFYGMDYWGQGTSVTVSS
VL: QIVLTQSPAIMSASPGEKVTMTCSASSSVSYMFWYQQKPGSSPRLWIYDTSNLVSGVPARFSGSRSGTSYSLTISSMEAEDAATYYCQQYSGYPYTFGGGTKLEIK
notes: Mouse IgG1 kappa, hybridoma supernatant; also called 18A08
For B7, the “O.D. determined by ELISA” value in experiment [12] was found to be 2.58. Also, in experiment [13], the Kd amounted to 0.537 nM, the “Response (nm)” value came out at 0.061 nm, the koff amounted to 0.000159 s⁻¹ and the kon came out at 296000 M⁻¹ s⁻¹. The “% response” value in the experiment with PD1-Fc [14] was -0.47%. In addition, the “Response (nm)” value with PD1-Fc [15] is 0 nm.
